Assay results reported in publication PMC6684798, “Structural basis for the target specificity of actin histidine methyltransferase SETD3” (Nature Communications, 2019).

Molecular target: T1, SETD3 WT (Homo sapiens, UniProt Q86TU7)
T1 construct: GST (cleaved yes); made in house; host or cells: Escherichia coli BL21(DE3) CodonPlus
T1 sequence (Q86TU7 1-594): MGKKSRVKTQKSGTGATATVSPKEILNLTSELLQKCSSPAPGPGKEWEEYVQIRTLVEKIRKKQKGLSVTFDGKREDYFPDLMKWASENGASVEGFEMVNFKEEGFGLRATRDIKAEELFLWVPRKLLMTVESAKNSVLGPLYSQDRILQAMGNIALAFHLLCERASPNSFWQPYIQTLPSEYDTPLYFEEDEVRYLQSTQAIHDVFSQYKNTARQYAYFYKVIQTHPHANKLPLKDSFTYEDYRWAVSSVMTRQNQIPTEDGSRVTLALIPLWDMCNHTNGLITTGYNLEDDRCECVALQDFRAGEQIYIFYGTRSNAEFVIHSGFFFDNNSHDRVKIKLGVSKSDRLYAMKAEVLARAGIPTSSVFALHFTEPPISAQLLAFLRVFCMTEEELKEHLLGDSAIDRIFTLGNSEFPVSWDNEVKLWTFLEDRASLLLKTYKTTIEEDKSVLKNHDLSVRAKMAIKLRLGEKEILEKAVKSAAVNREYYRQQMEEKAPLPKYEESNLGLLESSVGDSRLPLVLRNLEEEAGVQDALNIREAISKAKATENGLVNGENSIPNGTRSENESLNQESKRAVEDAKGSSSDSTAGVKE
Experiment: MALDI-TOF analysis of K73(66–88) methylation by SETD3 WT (Fig. 3e)
Type: biochemical
Settings: pH 10.5, 37 °C, 3 μM WT, 10 µM peptide, 40 µM SAM
Method: Fig. 3 Kinetics of SETD3 on H73 and K73 peptides. a Comparison of activities of three variants (WT, N255A, and N255V) on H73(66–80) peptide. The assays were performed at room temperature (~22 °C) and pH 8.0 using [WT] = 0.18 μM, [N255A] = 0.18 μM, and [N255V] = 0.72 μM. b Comparison of SETD3 WT activities on two K73 peptides (residues 66–80 and 66–88). The assays were performed at 37 °C and pH 10.5 using [WT] = 3 and 15 μM, respectively, for the long and short peptides. c Comparison of activities of three variants (N255A, N255V, and WT) on K73(66–88) peptide. The assays were performed at 37 °C and pH 10.5 using [N255A] = 90 nM, [N255V] = 0.72 μM and [WT] = 4 μM. Data represent the mean ± SD of N number of independent determinations (N = 3 for the WT and N = 2 for the mutants) performed in duplicate. Source data are provided as a Source Data file. d, e Mass spectrometry analysis of K73(66–88) methylation kinetic showing representative spectra at various time points for N255A variant (panel d) and SETD3 WT enzyme (panel e). […]
Recombinant human SETD3 (pXC2003) was expressed as a GST-fusion[22] in Escherichia coli BL21(DE3) CodonPlus^TM cells (Stratagene). […]
Actin K73 peptide (residues 66–88) was used as a substrate for SETD3 (Fig. 3d, e). […] We note that samples diluted into a 0.1% (v/v) TFA solution in water could not be detected by MALDI-TOF, thus the acetonitrile additive is necessary.

Substance: K73(66–88): K73-containing actin H73K peptide, residues 66–88 (TLKYPIEKGIVTNWDDMEKIWHH; UniProt P60709 66-88, looked up, variant H73K)
- K73 methylation product (2 h): only monomethyl lysine
- K73 methylation product (overnight): substantial amounts of unmodified and monomethyl substrates remain, along with a small amount of dimethyl and tri-methyl products
